Measurements taken from PMC12338045 (Science (New York, N.Y.), 2025).

Key:
[1] = target: T1, Mcm4 (yeast) (budding yeast, UniProt P30665 1-933); assay: cryo-EM structure
T1 sequence: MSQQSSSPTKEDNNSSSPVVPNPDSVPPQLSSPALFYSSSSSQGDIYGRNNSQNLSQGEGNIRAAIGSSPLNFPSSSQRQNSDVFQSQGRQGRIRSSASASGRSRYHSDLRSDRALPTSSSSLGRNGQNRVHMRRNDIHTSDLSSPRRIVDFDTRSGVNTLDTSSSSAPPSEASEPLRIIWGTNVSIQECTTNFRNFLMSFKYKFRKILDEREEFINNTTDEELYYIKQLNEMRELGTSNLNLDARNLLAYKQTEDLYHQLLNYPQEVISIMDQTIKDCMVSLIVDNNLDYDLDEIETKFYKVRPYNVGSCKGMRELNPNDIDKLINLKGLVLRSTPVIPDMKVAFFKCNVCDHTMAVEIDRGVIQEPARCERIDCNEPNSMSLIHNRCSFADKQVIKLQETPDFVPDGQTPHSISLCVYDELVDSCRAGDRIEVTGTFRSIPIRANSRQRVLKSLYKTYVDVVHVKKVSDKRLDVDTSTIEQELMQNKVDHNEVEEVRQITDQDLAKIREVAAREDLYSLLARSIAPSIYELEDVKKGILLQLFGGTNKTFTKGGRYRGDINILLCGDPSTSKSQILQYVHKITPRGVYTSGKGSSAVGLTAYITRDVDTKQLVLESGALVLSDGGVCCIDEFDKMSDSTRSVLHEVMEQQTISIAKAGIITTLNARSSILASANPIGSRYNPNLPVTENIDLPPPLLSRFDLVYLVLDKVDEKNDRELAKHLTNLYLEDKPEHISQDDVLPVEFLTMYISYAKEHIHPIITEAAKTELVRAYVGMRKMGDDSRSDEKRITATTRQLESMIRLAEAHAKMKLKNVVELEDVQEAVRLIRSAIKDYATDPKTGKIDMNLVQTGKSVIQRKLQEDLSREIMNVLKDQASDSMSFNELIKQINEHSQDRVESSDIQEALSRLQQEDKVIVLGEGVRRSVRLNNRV

[2] = target: Mcm3 (yeast) (budding yeast, UniProt P24279 1-971); assay: cryo-EM structure
Chain of Mcm3 (yeast) (P24279 whole entry): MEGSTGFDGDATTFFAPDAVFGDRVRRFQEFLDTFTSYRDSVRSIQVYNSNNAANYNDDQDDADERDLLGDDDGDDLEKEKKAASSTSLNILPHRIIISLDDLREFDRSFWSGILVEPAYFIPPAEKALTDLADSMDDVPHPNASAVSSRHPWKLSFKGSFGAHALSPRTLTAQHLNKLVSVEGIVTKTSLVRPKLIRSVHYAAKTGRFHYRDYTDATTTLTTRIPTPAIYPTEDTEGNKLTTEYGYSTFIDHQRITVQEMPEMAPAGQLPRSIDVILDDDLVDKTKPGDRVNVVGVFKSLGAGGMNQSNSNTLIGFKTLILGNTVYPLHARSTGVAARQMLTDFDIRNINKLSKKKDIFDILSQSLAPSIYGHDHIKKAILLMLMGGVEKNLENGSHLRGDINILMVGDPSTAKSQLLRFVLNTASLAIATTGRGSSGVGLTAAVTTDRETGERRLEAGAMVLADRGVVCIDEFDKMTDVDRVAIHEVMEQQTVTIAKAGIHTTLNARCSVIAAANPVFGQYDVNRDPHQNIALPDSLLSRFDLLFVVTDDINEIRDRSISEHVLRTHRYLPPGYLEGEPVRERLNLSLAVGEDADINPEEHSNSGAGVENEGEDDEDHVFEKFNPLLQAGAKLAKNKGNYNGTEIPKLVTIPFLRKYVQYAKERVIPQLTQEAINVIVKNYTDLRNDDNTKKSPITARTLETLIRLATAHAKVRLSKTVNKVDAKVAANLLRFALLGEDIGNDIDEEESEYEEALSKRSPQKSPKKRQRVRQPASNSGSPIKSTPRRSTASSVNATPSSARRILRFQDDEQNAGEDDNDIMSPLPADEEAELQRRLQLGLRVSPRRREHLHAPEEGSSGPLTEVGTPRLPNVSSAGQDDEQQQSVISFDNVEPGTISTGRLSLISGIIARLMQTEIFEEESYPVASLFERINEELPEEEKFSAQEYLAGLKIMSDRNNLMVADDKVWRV

binding result [1]: binds
binding result [2]: binds
B1: Mcm7 (yeast) (natural protein, budding yeast)
chain: MSAALPSIQLPVDYNNLFNEITDFLVTFKQDTLSSDATRNENEDENLDAENIEQHLLEKGPKYMAMLQKVANRELNSVIIDLDDILQYQNEKFLQGTQADDLVSAIQQNANHFTELFCRAIDNNMPLPTKEIDYKDDVLDVILNQRRLRNERMLSDRTNEIRSENLMDTTMDPPSSMNDALREVVEDETELFPPNLTRRYFLYFKPLSQNCARRYRKKAISSKPLSVRQIKGDFLGQLITVRGIITRVSDVKPAVEVIAYTCDQCGYEVFQEVNSRTFTPLSECTSEECSQNQTKGQLFMSTRASKFSAFQECKIQELSQQVPVGHIPRSLNIHVNGTLVRSLSPGDIVDVTGIFLPAPYTGFKALKAGLLTETYLEAQFVRQHKKKFASFSLTSDVEERVMELITSGDVYNRLAKSIAPEIYGNLDVKKALLLLLVGGVDKRVGDGMKIRGDINVCLMGDPGVAKSQLLKAICKISPRGVYTTGKGSSGVGLTAAVMKDPVTDEMILEGGALVLADNGICCIDEFDKMDESDRTAIHEVMEQQTISISKAGINTTLNARTSILAAANPLYGRYNPRLSPLDNINLPAALLSRFDILFLMLDIPSRDDDEKLAEHVTYVHMHNKQPDLDFTPVEPSKMREYIAYAKTKRPVMSEAVNDYVVQAYIRLRQDSKREMDSKFSFGQATPRTLLGIIRLSQALAKLRLADMVDIDDVEEALRLVRVSKESLYQETNKSKEDESPTTKIFTIIKKMLQETGKNTLSYENIVKTVRLRGFTMLQLSNCIQEYSYLNVWHLINEGNTLKFVDDGTMDTDQEDSLVSTPKLAPQTTASANVSAQDSDIDLQDA
